Measured values: paper PMC5716044 (The Journal of Experimental Medicine, 2017)

Target: full-length EphA4 containing C-terminal FLAG and hexahistidine tags (EphA4-FLAGhis6) (human, UniProt P54764 20-986)
Assay: pull-down

full-length EphA4 containing C-terminal FLAG and hexahistidine tags (EphA4-FLAGhis6), sequence (P54764 20-986): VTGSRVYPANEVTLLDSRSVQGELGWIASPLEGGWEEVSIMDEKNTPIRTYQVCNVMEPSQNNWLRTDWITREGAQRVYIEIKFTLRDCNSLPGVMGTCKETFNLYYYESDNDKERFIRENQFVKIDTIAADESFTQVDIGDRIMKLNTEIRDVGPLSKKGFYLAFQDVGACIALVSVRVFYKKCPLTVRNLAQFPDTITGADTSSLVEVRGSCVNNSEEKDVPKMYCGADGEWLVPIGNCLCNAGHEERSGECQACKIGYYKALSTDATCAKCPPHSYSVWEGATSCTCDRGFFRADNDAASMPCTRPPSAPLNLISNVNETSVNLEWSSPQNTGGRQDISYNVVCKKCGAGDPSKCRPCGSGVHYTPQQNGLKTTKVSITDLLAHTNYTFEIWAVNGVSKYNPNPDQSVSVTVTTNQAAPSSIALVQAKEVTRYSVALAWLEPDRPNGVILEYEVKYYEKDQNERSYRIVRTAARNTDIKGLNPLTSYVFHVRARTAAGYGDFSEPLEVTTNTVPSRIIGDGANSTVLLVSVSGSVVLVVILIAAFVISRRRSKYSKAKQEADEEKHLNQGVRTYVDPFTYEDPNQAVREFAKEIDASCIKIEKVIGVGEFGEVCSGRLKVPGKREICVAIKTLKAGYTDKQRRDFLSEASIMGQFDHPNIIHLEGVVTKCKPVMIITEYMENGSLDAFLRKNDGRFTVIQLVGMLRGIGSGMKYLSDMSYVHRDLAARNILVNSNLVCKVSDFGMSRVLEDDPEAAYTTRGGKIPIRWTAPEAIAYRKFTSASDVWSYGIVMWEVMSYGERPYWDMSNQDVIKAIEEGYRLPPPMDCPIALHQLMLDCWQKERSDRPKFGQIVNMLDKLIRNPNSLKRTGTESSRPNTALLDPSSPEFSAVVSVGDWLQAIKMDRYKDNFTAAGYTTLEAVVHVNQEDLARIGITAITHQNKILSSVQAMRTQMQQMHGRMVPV

Row | Binder | binding result
1 | SORLA YWTD repeat/EGF-like region (aa 758-1,076) fused to Fc, WT (Fc fusion, UniProt Q92673 758-1076, looked up) NEFILYAVRKSIYRYDLASGATEQLPLTGLRAAVALDFDYEHNCLYWSDLALDVIQRLCLNGSTGQEVIINSGLETVEALAFEPLSQLLYWVDAGFKKIEVANPDGDFRLTIVNSSVLDRPRALVLVPQEGVMFWTDWGDLKPGIYRSNMDGSAAYHLVSEDVKWPNGISVDDQWIYWTDAYLECIERITFSGQQRSVILDNLPHPYAIAVFKNEIYWDDWSQLSIFRASKYSGSQMEILANQLTGLMDMKIFYKGKNTGSNACVPRPCSLLCLPKANNSRSCRCPEDVSSSVLPSGDLMCDCPQGYQLKNNTCVKQEN | binds
2 | SORLA YWTD repeat/EGF-like region (aa 758-1,076) fused to Fc, T947M variant (Fc fusion, UniProt Q92673 758-1076, looked up) NEFILYAVRKSIYRYDLASGATEQLPLTGLRAAVALDFDYEHNCLYWSDLALDVIQRLCLNGSTGQEVIINSGLETVEALAFEPLSQLLYWVDAGFKKIEVANPDGDFRLTIVNSSVLDRPRALVLVPQEGVMFWTDWGDLKPGIYRSNMDGSAAYHLVSEDVKWPNGISVDDQWIYWTDAYLECIERIMFSGQQRSVILDNLPHPYAIAVFKNEIYWDDWSQLSIFRASKYSGSQMEILANQLTGLMDMKIFYKGKNTGSNACVPRPCSLLCLPKANNSRSCRCPEDVSSSVLPSGDLMCDCPQGYQLKNNTCVKQEN | binds
